Data on four molecules can be found in US20240376185A1 (SMIVET B V, published 2024).

Assay [1] has as its target T1, Swine albumin (swine, UniProt P08835 25-607).
T1 construct: also called Porcine Alb
As to the kind of experiment: BLI (Octet Red96), SDA on Ni-NTA sensor, albumin as analyte. A general note: BLI is a label-free optical method that tracks binding on a fibre tip over time.

Assay [2] deals with T2, Cat albumin (cat, UniProt P49064 25-608).
T2 construct: also called Feline albumin; Feline Alb
The description is as above.

Assay [3] has as its target T3, Dog albumin (dog, UniProt P49822 25-608).
T3 construct: also called Canine albumin; Canine Alb
Described as above.

For assay [4], the target named is T4, Horse albumin (horse, UniProt P35747 25-607).
T4 construct: also called Equine albumin; Equine Alb
The description is as above.

A further assay deals with T5, horse serum albumin (horse, UniProt P35747 25-607).
T5 construct: mature; also called horse Alb; Equine albumin
As to the kind of experiment: BLI, Octet Red96.

The target of assay [5] is T6, human albumin (human, UniProt P02768 25-609). As to the kind of experiment: ELISA; A450 below 0.2 at highest SDA concentration. For orientation: ELISA stands for enzyme-linked immunosorbent assay.
In assay [6] the target is T7, chicken ovalbumin (chicken, UniProt P01012 2-386).
T7 construct: also called Chicken Alb
T7 sequence (looked up): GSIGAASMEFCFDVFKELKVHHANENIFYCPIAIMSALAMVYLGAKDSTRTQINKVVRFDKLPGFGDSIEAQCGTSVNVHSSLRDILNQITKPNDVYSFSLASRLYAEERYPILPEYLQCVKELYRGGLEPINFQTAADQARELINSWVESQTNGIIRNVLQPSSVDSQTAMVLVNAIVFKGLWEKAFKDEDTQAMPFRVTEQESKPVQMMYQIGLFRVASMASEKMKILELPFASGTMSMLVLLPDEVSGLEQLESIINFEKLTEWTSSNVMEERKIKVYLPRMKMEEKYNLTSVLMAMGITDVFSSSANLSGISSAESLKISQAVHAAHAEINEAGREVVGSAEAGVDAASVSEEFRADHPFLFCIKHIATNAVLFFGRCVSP
As to the kind of experiment: ELISA; A450 below 0.2 at highest SDA concentration.

Assay [7] deals with T8, sheep albumin (sheep, UniProt P14639 25-607). As to the kind of experiment: ELISA; A450 below 0.2 at highest SDA concentration.
In assay [8] the target is T9, bovine albumin (bovine, UniProt P02769 25-607). The experiment in a line: ELISA; A450 below 0.2 at highest SDA concentration.
In assay [9] the target is T10, swine albumin (swine, UniProt P08835 25-607).
T10 construct: also called Porcine albumin
As to the kind of experiment: ELISA on coated albumin.

Assay [10] addresses T6, human albumin. As to the kind of experiment: ELISA on coated albumin.
Assay [11] deals with T7, chicken ovalbumin. The experiment in a line: ELISA on coated albumin.
Assay [12] deals with T8, sheep albumin. The experiment in a line: ELISA on coated albumin.
The target in assay [13] is T11, dog albumin (dog, UniProt P49822 25-608).
T11 construct: also called Canine albumin
The experiment in a line: ELISA on coated albumin.

Assay [14] deals with T9, bovine albumin. As to the kind of experiment: ELISA on coated albumin.
The target of the next assay is mouse albumin (mouse, UniProt P07724 25-608). As to the kind of experiment: ELISA on coated albumin.
In assay [15] the target is T12, horse albumin (horse, UniProt P35747 25-607).
T12 construct: also called Equine albumin
The experiment in a line: ELISA on coated albumin.

The target in assay [16] is T13, cat albumin (cat, UniProt P49064 25-608).
T13 construct: also called Feline albumin
As to the kind of experiment: ELISA on cat albumin captured from serum.

T2 sequence (P49064 25-608 limits assumed): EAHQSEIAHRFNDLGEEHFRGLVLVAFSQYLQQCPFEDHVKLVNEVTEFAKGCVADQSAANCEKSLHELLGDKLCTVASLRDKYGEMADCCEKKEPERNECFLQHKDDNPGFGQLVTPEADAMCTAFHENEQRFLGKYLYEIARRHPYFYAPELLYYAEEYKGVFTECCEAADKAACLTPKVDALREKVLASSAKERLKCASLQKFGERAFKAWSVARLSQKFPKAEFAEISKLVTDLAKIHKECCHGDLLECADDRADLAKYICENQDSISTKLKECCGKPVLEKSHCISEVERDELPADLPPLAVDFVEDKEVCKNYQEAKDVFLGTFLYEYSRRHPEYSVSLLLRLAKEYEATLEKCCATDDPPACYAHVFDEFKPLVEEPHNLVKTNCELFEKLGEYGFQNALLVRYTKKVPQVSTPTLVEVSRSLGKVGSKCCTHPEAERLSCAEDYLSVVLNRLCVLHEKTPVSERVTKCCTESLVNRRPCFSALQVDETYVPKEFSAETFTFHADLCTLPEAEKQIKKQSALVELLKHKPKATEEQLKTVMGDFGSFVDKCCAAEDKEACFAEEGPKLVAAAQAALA
T3 sequence (P49822 25-608 limits assumed): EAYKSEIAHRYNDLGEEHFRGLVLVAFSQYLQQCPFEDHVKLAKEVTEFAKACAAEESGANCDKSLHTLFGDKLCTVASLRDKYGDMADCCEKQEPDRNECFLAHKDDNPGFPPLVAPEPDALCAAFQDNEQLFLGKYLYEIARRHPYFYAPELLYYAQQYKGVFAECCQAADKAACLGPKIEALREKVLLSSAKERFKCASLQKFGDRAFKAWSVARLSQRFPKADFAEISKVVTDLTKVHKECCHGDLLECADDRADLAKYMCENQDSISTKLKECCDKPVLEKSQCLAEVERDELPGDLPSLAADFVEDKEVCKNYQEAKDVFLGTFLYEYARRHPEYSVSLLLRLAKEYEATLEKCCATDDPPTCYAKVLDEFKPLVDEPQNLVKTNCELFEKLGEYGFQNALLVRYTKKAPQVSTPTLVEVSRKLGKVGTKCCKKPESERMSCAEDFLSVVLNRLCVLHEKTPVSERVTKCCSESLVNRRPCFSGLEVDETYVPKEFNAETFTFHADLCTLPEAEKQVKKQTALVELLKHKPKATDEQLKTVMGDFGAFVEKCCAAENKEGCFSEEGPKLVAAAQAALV
T4 sequence (P35747 25-607 limits assumed): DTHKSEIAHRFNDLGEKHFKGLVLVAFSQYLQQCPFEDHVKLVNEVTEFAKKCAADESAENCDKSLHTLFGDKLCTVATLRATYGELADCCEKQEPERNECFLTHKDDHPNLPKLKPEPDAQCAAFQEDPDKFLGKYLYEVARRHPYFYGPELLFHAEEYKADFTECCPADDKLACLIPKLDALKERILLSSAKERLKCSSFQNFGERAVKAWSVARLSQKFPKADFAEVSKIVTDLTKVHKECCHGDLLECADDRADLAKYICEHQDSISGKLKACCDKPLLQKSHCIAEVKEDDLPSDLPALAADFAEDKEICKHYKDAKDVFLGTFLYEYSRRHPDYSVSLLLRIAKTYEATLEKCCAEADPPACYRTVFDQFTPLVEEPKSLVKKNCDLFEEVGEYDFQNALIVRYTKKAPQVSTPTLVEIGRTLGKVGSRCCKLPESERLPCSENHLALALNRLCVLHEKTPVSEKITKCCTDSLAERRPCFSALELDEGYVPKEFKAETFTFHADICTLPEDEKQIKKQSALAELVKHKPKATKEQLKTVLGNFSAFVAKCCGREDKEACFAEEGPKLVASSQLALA
T1 sequence (P08835 25-607 limits assumed): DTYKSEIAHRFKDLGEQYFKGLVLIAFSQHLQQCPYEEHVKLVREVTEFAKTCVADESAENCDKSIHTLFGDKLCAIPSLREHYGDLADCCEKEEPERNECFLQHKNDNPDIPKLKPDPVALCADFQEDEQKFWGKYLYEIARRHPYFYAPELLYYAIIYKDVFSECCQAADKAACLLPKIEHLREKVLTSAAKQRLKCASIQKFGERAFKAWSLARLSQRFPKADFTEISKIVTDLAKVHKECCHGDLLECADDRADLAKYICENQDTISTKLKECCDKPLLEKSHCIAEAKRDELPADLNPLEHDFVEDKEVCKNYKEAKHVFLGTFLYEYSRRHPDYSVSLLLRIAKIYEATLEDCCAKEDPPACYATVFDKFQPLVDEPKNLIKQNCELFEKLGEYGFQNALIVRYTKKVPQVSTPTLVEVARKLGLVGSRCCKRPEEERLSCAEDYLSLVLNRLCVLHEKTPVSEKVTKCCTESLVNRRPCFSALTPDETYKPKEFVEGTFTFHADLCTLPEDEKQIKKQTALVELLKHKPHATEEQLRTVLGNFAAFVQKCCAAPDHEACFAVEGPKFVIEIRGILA
T11 sequence (P49822 25-608 limits assumed): as the sequence (P49822 25-608 limits assumed) above
T8 sequence (P14639 25-607 limits assumed): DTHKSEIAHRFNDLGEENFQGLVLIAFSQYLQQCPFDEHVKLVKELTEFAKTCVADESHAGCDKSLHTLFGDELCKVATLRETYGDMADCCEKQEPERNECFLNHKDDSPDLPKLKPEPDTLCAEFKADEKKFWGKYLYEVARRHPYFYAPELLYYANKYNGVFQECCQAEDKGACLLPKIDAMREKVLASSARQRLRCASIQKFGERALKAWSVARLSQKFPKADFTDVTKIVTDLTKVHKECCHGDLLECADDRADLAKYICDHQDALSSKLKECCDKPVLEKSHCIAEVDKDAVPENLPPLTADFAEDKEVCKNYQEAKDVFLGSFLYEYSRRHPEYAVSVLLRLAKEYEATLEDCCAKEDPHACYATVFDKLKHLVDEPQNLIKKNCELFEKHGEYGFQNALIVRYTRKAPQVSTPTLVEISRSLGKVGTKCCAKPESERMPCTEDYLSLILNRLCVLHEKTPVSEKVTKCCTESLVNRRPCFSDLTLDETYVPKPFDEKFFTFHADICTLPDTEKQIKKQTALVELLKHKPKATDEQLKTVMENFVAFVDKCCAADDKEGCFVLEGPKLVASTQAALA
T9 sequence (P02769 25-607 limits assumed): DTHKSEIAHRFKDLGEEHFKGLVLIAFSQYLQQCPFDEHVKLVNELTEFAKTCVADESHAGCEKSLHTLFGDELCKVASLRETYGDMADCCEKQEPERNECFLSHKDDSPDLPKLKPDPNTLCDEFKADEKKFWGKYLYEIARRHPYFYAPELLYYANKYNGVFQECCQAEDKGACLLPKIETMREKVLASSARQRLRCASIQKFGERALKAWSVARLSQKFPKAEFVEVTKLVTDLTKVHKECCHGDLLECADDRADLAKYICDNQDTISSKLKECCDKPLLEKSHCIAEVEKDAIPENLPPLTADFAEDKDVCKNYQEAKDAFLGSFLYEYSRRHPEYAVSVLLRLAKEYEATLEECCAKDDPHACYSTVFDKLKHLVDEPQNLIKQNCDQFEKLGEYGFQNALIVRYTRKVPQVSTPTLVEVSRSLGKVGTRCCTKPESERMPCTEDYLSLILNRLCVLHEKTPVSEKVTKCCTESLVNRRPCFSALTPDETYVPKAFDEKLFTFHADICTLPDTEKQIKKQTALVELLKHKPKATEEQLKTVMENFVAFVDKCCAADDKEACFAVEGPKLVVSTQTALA
T5 sequence (P35747 25-607): as the sequence (P35747 25-607 limits assumed) above
T12 sequence (P35747 25-607 limits assumed): as above
mouse albumin, sequence (P07724 25-608 limits assumed): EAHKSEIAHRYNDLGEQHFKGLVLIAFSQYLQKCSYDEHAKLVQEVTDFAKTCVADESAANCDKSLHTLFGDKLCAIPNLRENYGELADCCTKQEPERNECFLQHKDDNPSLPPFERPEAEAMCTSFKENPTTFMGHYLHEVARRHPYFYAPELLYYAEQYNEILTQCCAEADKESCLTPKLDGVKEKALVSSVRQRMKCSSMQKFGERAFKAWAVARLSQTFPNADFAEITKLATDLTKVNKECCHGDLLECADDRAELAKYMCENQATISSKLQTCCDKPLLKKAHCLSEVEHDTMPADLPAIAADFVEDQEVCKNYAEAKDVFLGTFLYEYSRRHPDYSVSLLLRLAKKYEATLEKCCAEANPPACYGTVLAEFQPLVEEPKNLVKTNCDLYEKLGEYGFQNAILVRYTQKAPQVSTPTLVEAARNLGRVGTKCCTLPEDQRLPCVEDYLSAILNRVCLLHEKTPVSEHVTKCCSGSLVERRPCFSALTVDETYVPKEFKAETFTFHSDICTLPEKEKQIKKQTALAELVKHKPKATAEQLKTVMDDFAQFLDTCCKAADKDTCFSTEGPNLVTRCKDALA
T10 sequence (P08835 25-607 limits assumed): as the sequence (P08835 25-607 limits assumed) above
T13 sequence (P49064 25-608 limits assumed): as the sequence (P49064 25-608 limits assumed) above

B1: SVA12L (VHH)
VHH: QVQLQESGGGLVQAGGSLRLSCAASGRTFSYYPMAWFRQAPGQEREFVAAIIGADTTYYADSLKGRFTISRDNAKNMVYLQMNSLKPEDTAVYYCAARNTYWSDVYYREGQYTNWGQGTQVTVSS
Regarding B1, the Kd (as a rule, the constant that tells how readily two partners part at equilibrium) with Swine albumin [1] amounted to 159 nM; with Cat albumin [2] it was 19 nM; with Dog albumin [3] it was 271 nM; with Horse albumin [4], 10.7 nM. The koff (usually the first-order rate constant of dissociation) in the assay with Swine albumin [1] stood at 0.0238 s⁻¹; with Cat albumin [2] it was 0.000737 s⁻¹; in the assay with Dog albumin [3], 0.0125 s⁻¹; in the assay with Horse albumin [4] it was 0.00109 s⁻¹. In addition, the kon (in general, the rate constant with which the complex forms) in the assay with Swine albumin [1] amounted to 150000 M⁻¹ s⁻¹; with Cat albumin [2] it was 38800 M⁻¹ s⁻¹; with Dog albumin [3], 45900 M⁻¹ s⁻¹; with Horse albumin [4], 101000 M⁻¹ s⁻¹.

B2: SVG13L (VHH)
VHH: QVQLQESGGGLVQPGGSLRLSCEASGFTFDDYGMSWVRQAPGKGLEWVSSLTPNGGSTYYADSVKGRFTISRDNAKNTLYLQMNSLKPEDTALYYCAKNSYYGAMDYWGKGTLVTVSS
notes: yeast-produced
On to B2, for which the binding result in the assay with horse serum albumin is reported as “no binding (tested: 100 nM)”.

B3: SVA06L (VHH)
VHH: QVQLQESGGRLVQAEDSLRLSCAASGRTFVSYDMGWFRQAPGKEREFVAAINWRGYTTDYVDSVKGRFFISRDIAKSTVYLQMNNLKPEDTAVYYCAARQMSGSSRYSPPGRVGYDFWGQGTQVTVSS
Consider B3, for which the binding result in the assay with human albumin [5], with chicken ovalbumin [6], with sheep albumin [7] and in the assay with bovine albumin [8] was “no binding (tested: 1000 ng/ml)” throughout. The “SDA Effective Concentration resulting in A450 nm = 0.2” value was 344 ng/mL in the assay with swine albumin [9], 51 ng/mL with dog albumin [13], 180 ng/mL with mouse albumin and 235 ng/mL with horse albumin [15]. In addition, the “maximal absorbance value at 450 nm” value turned out to be 0.288 A450 in the assay with swine albumin [9]; 0.05 A450 with human albumin [10]; 0.054 A450 with chicken ovalbumin [11]; 0.052 A450 with sheep albumin [12]; 0.921 A450 with dog albumin [13]; 0.052 A450 with bovine albumin [14]. Further, the “maximal absorbance value at 450 nm” value is 0.36 A450 with mouse albumin, 0.483 A450 with horse albumin [15] and 0.158 A450 with cat albumin [16].

B4: SVT16-L123Q-GS2-SVG13M4-H6 (bispecific antibody)
chain: QVQLQESGGGSVQAGDSLRLSCAASGRTISNYAMGWFRQAPGKQREFVAAISRSDNTYYTDSVKGRFTISRDNAKNTLYLQMNSLKPEETAVYYCAADPNLMYESKWKYRALEAWGQGTQVTVSSGGGGSGGGSEVQLVESGGGLVQPGGSLRLSCEASGFTFDDYGMSWVRQAPGKGLEWVSSLTPNGGSTYYADSVKGRFTISRDNAKNTLYLQMNSLKPEDTALYYCAKNSYYGAMDYWGQGTQVTVSSHHHHHH
B4: the binding result with horse serum albumin is “no binding (tested: 100 nM)”.
